Source: the DeepSol protein solubility set

assay: soluble on expression in E. coli; label from the status in PepcDB or PDB records

Sequence | soluble on expression in E. coli
MQVLHVCSEMFPLLKTGGLADVIGALPAAQIADGVDARVLLPAFPDIRRGVTDAQVVSRRDTFAGHITLLFGHYNGVGIYLIDAPHLYDRPGSPYHDTNLFAYTDNVLRFALLGWVGAEMASGLDPFWRPDVVHAHDWHAGLAPAYLAARGRPAKSVFTVHNLAYQGMFYAHHMNDIQLPWSFFNIHGLEFNGQISFLKAGLYYADHITAVSPTYAREITEPQFAYGMEGLLQQRHREGRLSGVLNGVDEKIWSPETDLLLASRYTRDTLEDKAENKRQLQIAMGLKVDDKVPLFAVVSRLTSQKGLDLVLEALPGLLEQGGQLALLGAGDPVLQEGFLAAAAEYPGQVGVQIGYHEAFSHRIMGGADVILVPSRFAPCGLTQLYGLKYGTLPLVRRTGGLADTVSDCSLENLADGVASGFVFEDSNAWSLLRAIRRAFVLWSRPSLWRFVQRQAMAMDFSWQVAAKSYRELYYRLKLEHHHHHH | soluble
AIASGAYDESAMSDETTDSFWEVGNYKRTVKRIEDGHRLCNDMMSCIQERAKIEKAYSQQLTDWSKRWRQLVERGPQYGTLERAWLAVMTEAEKVSELHQEVKNNLLNEDLEKVKNWQKDAYHKQMMGGFKETKEADEGFRKAQKPWAKKLKELETAKKTYHMACKEEKIASAREANSKGEASVTTDQQKKLQEKVDKCKNDVQKAKEKYEKSLDELNKCTPQYMENMEVVFDQCQQFEEKRLNFLREVLLDTKRHLNLTESQSYATVYRELERTIVSASAQEDLKWFSSVHGPGMHMNWPQFEEFNPDLSHAISKKEKVKRNHDGVTLTQVTHGAEHGTPQTGDRGSVSSYEKNQQYSAEWSDDEQPPTAAQSASETNGGNPFEEDSKGVRVRALYDYEGQEQDELTFKAGDELTKLEDEDEQGWCKGRLDSGQLGLYPANYVEPV | soluble
MPLHHLTRFPRLEFIGAPTPLEYLPRLSDYLGREIYIKRDDVTPIAMGGNKLRKLEFLVADALREGADTLITAGAIQSNHVRQTAAVAAKLGLHCVALLENPIGTTAENYLTNGNRLLLDLFNTQIEMCDALTDPDAQLQTLATRIEAQGFRPYVIPVGGSSALGAMGYVESALEIAQQCEEVVGLSSVVVASGSAGTHAGLAVGLEHLMPDVELIGVTVSRSVAEQKPKVIALQQAIAGQLALTATADIHLWDDYFAPGYGVPNDAGMEAVKLLASLEGVLLDPVYTGKAMAGLIDGISQKRFNDDGPILFIHTGGAPALFAYHPHV | not soluble
MGSDKIHHHHHHMRIKAVSSLVGGEVLAEPILTEKNDILIPNGTRIKPDYVPLIESLGIESVMVEDPYENYESPNSIVDPAIFDKYVKKVRRLMESHIYHDGKSLKEFEIIANDIVHDINDMPYDVIVDIKERNSDLYEHTVMVTLLSVLVARKLKLDEKRKYNIAVGCLLHDIGLRFIVTRYKNRDFSNANPAELFEYKKHTILGYSALDEENWIAPISMKMVLSHHENMAGTGFPMKQKNKELECRIIQACDAFDSLISGMECKRICVQEAINQIKENDGGRFDNKIIKCLLSSIARYPVGTTVKTNAEEEGVVVSQTVDPENPIIMIFGNENNGKLMLHNRLNLMLDKNISILQVI | not soluble
MTLIDCCDPQKPSRVLFHFLILDAPSPSNLPTYIKELQHRGVRHLVRVCGPTYDATLVKSRGIDVHSWPFDDGAPPTRAVLDSWLKLLDTELARQQEDPSVPPPTIGVHCVAGLGRAPILVALALVEYGNVSALDAIALIREKRKGAINQTQMHWITKYKR | not soluble
MAHHHHHHMESISRTYENIKNDKNNLSNAENENNGNFKAPPNGTVCCPEDLKMYSTIQLNQEIEISKNPFPLHEINKKNDIPLCAQEFSDLTDPLYIKKICLEKVPEWNHFTEDNLRVKQILSGLTNQLFEVGLKEETANNYNSIRTRVLFRIYGKHVDELYNTISEFEVYKTMSKYKIAPQLLNTFNGGRIEEWLYGDPLRIDDLKNPTILIGIANVLGKFHTLSRKRHLPEHWDRTPCIFKMMEKWKNQLFKYKNIEKYNCDIHKYIKESDKFIKFMKVYSKSDNLANTIVFCHNDLQENNIINTNKCLRLIDFEYSGFNFLATDIANFFIETSIDYSVSSYPFFEIDKKKYISYENRKLFITAYLSNYLDKSLVVPTPKLIDEILEAVEVQALGAHLLWGFWSIIRGYQTKSYNEFDFFLYAEQRLKMYDDQKEYLISNNIIKGYD | soluble
SAHSKTRTNDGKITYPPGVKEISDKISKEEMVRRLKMVVKTFMDMDQDSEEEKELYLNLALHLASDFFLKHPDKDVRLLVACCLADIFRIYAPEAPYTSPDKLKASTDLNNSKIDRYFDLSF | soluble
